Experimental data taken from patent publication US20210246451, “APTAMER FOR ADAMTS5 AND USE FOR APTAMER FOR ADAMTS5” (RIBOMIC INC., published 2021).

T1: ADAMTS5 (UniProt Q9UNA0 Q9UNA0:262-622)
T1 sequence: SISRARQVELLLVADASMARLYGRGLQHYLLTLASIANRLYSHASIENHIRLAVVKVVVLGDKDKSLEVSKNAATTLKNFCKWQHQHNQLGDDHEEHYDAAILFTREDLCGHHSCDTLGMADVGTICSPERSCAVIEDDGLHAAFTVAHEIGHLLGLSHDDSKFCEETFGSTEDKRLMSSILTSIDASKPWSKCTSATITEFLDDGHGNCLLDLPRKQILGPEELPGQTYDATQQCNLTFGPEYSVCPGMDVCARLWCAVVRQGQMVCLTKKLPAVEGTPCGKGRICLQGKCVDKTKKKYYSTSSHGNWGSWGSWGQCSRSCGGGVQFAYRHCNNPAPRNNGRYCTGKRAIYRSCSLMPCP


Molecular target: T1, ADAMTS5
Assay: SPR; RU ratio >=40%
Conditions: tags: R&D Systems

Binder	binding result
GGGUAUUGGGGCCUCCACAGAAAAUUCUUGGACUAAACCAACUCGA (ssRNA, 2'-F pyrimidines) [SEQ ID NO: 43]	binds
GGGUAUUGGGGCCUCCACAGAAAAGUCUUGGACUAAACCAACUCGA (ssRNA, 2'-F pyrimidines) [SEQ ID NO: 45]	binds
GGGUAUUGGGGCCUCCACAGAACUUUCUUGGACUAAACCAACUCGA (ssRNA, 2'-F pyrimidines) [SEQ ID NO: 44]	binds

Molecular target: T1, ADAMTS5
Assay: inhibition; 30 nM
Conditions: tags: R&D Systems
Method: (§1) Whether an aptamer having the nucleotide sequence shown in SEQ ID NO: 1 inhibits the enzyme activity of ADAMTS5 was evaluated by the following method. As a substrate of ADAMTS5, the G1-IGD-G2 domain of aggrecan (manufactured by R&D systems) was used. ADAMTS5 specifically cleaves in between the 392nd glutamic acid and the 393rd alanine in the G1-IGD-G2 domain and produces two fragments. These fragments have faster electrophoretic mobility than uncleaved G1-IGD-G2. Thus, the enzyme activity of ADAMTS5 can be measured by quantifying the band intensity of G1-IGD-G2 by SDS-PAGE electrophoresis. The assay was performed in a solution A buffer with a reaction mixture volume of 10 μL. First, a mixture (10 μL) of a nucleic acid and ADAMTS5 was prepared and incubated at 25° C. for 15 min. To a substrate solution (5 μL) diluted with solution A was added a mixture (5 μL) of the nucleic acid and ADAMTS5 to start the enzyme reaction. The final concentration of ADAMTS5 in the reaction solution was 5 nM, and the final substrate concentration was 50 μg/mL. The reaction solution was incubated at 37° C. for 2 hr, 2 μL of solution D was added, and the mixture was heated at 95° C. for 2 min to stop the enzyme reaction of ADAMTS5. Solution D contains 0.25 M tris (pH 6.8), 10% SDS, 50% glycerol, 0.25% bromo phenolblue, and 20% 2-mercaptoethanol. The heat-treated reaction solution was electrophoresed by 7.5% SDS-PAGE and stained with SYPRO Orange (manufactured by Sigma-Aldrich). The staining was performed according to the manual of Sigma-Aldrich and detected using STORM840 manufactured by GE Healthcare. […] The amount of uncleaved substrate in each reaction solution was quantified from the band intensity and the standard curve. The substrate cleavage efficiency of ADAMTS5 under these reaction conditions was 80-100%. The inhibition rate of the test substance was calculated using the following equation.
(§2) The nucleic acids shown in SEQ ID NOs: 3(1)-3(16) were all produced by chemical synthesis. Whether these nucleic acids inhibit the enzyme activity of ADAMTS5 was determined by a method similar to that in Example 1.

Binder	activity [% inhibition]
GGAUUGGGGCCUCCACAGCUGCUCAGCUUGGACUAAACCAAUCC (ssRNA, 2'-OMe at 1-3,42-44; 2'-F other pyrimidines) [3(1)]	49.8
GGAUUGGGGCCUCCACAGCUGCUCAGCUUGGACUAAACCAAUCC (ssRNA, 2'-OMe at 4-6,39-41; 2'-F other pyrimidines) [3(2)]	53.6
GGAUUGGGGCCUCCACAGCUGCUCAGCUUGGACUAAACCAAUCC (ssRNA, 2'-OMe at 18-20,25-27; 2'-F other pyrimidines) [3(3)]	48.6
GGAUUGGGGCCUCCACAGCUGCUCAGCUUGGACUAAACCAAUCC (ssRNA, 2'-OMe at A36; 2'-F pyrimidines) [3(4)]	53.1

Molecular target: T1, ADAMTS5
Assay: inhibition; 30 nM
Conditions: tags: R&D Systems
Remark: another data set of the same source
Method: as §1
Whether these aptamers inhibit the enzyme activity of ADAMTS5 was tested by a method similar to that in Example 1. The final concentration of the nucleic acid was fixed to 30 nM in the test.

Binder	activity [% inhibition]
GGCUUGGGGCCUCCACAGCUGUCAGCUUGGACUAAACCAAGCC (ssRNA, 2'-F pyrimidines) [SEQ ID NO: 6]	33.7
GGAUUGGGGCCUCCACAGCGUCGCUUGGACUAAACCAAUCC (ssRNA, 2'-F pyrimidines) [SEQ ID NO: 9]	5.9
GGCUUGGGGCCUCCACAGCUGCUCAGCUUGGACUAAACCAAGCC (ssRNA, 2'-F pyrimidines) [SEQ ID NO: 4]	23
GGCUUGGGGCCUCCACAGCGCUCGCUUGGACUAAACCAAGCC (ssRNA, 2'-F pyrimidines) [SEQ ID NO: 5]	27

Molecular target: T1, ADAMTS5
Assay: inhibition; method 1
Conditions: tags: R&D Systems
Method: as §1
The aptamers having the sequences shown in SEQ ID NOs: 28(l)-28(18) (SEQ ID NO: 28 lineage) and SEQ ID NOs: 29(1)-29(3) (SEQ ID NO: 29 lineage) were all produced by chemical synthesis.

Binder	activity [% inhibition]
CGUAGGGGCCUCCACAGCGUAAGCUUGGACUUAAACCACG (ssRNA, as SEQ 28 plus 2'-OMe at A4) [28(2)]	68.7
CGUAGGGGCCUCCACAGCGUAAGCUUGGACUUAAACCACG (ssRNA, as SEQ 28 plus 2'-OMe at 4,20-22,31; 2'-F at G7,G28; 3' idT) [28(14)]	90.6
CGUAGGGGCCUCCACAGCGUAAGCUUGGACUUAAACCACG (ssRNA, as SEQ 28 plus 2'-F at G28) [28(10)]	76.6
CGUAGGGGCCUCCACAGCGUAAGCUUGGACUUAAACCACG (ssRNA, as SEQ 28 plus 2'-F at A14) [28(9)]	69.7
CGUAGGGGCCUCCACAGCGUAAGCUUGGACUUAAACCACG (ssRNA, as SEQ 28 plus 2'-F at A33) [28(12)]	67.8
CGUAGGGGCCUCCACAGCGUAAGCUUGGACUUAAACCACG (ssRNA, as SEQ 28 plus 2'-OMe at 4,20-22) [28(5)]	77.3
CGUAGGGGCCUCCACAGCAUUCGCUUGGACACAAACCACG (ssRNA, as SEQ 29 plus 2'-F at G7,G28; 3' idT) [29(3)]	80.9
CGUAGGGGCCUCCACAGCGUAAGCUUGGACUUAAACCACG (ssRNA, as SEQ 28 plus 2'-F at A29) [28(11)]	42.6
CGUAGGGGCCUCCACAGCGUAAGCUUGGACUUAAACCACG (ssRNA, as SEQ 28 plus 2'-F at G7) [28(7)]	84.1
CGUAGGGGCCUCCACAGCGUAAGCUUGGACUUAAACCACG (ssRNA, as SEQ 28 plus 2'-F at G8) [28(8)]	71.1
CGUAGGGGCCUCCACAGCAUUCGCUUGGACACAAACCACG (ssRNA, as SEQ 29 plus 2'-F at G7,G28 and 2'-OMe at A31; 3' idT) [29(2)]	89.8
CGUAGGGGCCUCCACAGCGUAAGCUUGGACUUAAACCACG (ssRNA, as SEQ 28 plus 2'-F at A4) [28(6)]	76.8
CGUAGGGGCCUCCACAGCGUAAGCUUGGACUUAAACCACG (ssRNA, as SEQ 28 plus 2'-OMe at 4,20-22,31; 3' idT) [28(13)]	86.1

Molecular target: T1, ADAMTS5
Assay: inhibition; 10 nM
Conditions: tags: R&D Systems
Method: as §1, §2

Binder	activity [% inhibition]
GGAUUGGGGCCUCCACAGCUGCUCAGCUUGGACUAAACCAAUCC (ssRNA, 2'-OMe at 1-7,17-28,36,38-44; 2'-F other pyrimidines) [3(8)]	52.8
GGAUUGGGGCCUCCACAGCUGCUCAGCUUGGACUAAACCAAUCC (ssRNA, 2'-OMe at 1-7,17-28,32,36,38-44; 2'-F other pyrimidines) [3(14)]	1.2
GGAUUGGGGCCUCCACAGCUGCUCAGCUUGGACUAAACCAAUCC (ssRNA, 2'-OMe at 1-7,9,17-28,36,38-44; 2'-F other pyrimidines) [3(10)]	25.6
GGAUUGGGGCCUCCACAGCUGCUCAGCUUGGACUAAACCAAUCC (ssRNA, 2'-OMe at 1-7,15,17-28,36,38-44; 2'-F other pyrimidines) [3(11)]	48.1
GGAUUGGGGCCUCCACAGCUGCUCAGCUUGGACUAAACCAAUCC (ssRNA, 2'-OMe at 1-8,17-28,36,38-44; 2'-F other pyrimidines) [3(9)]	25.8
GGAUUGGGGCCUCCACAGCUGCUCAGCUUGGACUAAACCAAUCC (ssRNA, 2'-OMe at 1-7,17-28,36-44; 2'-F other pyrimidines) [3(16)]	53.6
GGAUUGGGGCCUCCACAGCUGCUCAGCUUGGACUAAACCAAUCC (ssRNA, 2'-OMe at 1-7,17-28,31,36,38-44; 2'-F other pyrimidines) [3(13)]	37
GGAUUGGGGCCUCCACAGCUGCUCAGCUUGGACUAAACCAAUCC (ssRNA, 2'-OMe at 1-7,17-28,35,36,38-44; 2'-F other pyrimidines) [3(15)]	27.6
GGAUUGGGGCCUCCACAGCUGCUCAGCUUGGACUAAACCAAUCC (ssRNA, 2'-OMe at 1-7,17-28,30,36,38-44; 2'-F other pyrimidines) [3(12)]	57.5

Molecular target: T1, ADAMTS5
Assay: inhibition; 10 nM aptamer, aggrecan G1-IGD-G2 cleavage, method 1
Conditions: tags: R&D Systems
Method: as §1
The aptamers having the sequences shown in SEQ ID NOs: 10(1)-10(8) and 11(1)-11(35), SEQ ID NO: 13-15 were all produced by chemical synthesis.

Binder	activity [% inhibition]
AUUGGGGCCUCCACAGCGCUCGCUUGGACUAAACCAAU (ssRNA, 2'-OMe at 1-5,15-26,32-38; 2'-F at 8-12,14,29,30; PS between 11 and 12) [11(22)]	49.8
AUUGGGGCCUCCACAGCGCUCGCUUGGACUAAACCAAU (ssRNA, 2'-OMe at 1-5,15-26,32-38; 2'-F at 8-12,14,29,30; PS between 28 and 29) [11(28)]	44.8
AUUGGGGCCUCCACAGCGCUCGCUUGGACUAAACCAAU (ssRNA, 2'-OMe at 1-5,15-26,32-38; 2'-F at 8-12,14,29,30; PS between 29 and 30) [11(29)]	56.5
AUUGGGGCCUCCACAGCGCUCGCUUGGACUAAACCAAU (ssRNA, 2'-OMe at 1-5,15-26,32-38; 2'-F at 8-12,14,29,30; PS between 13 and 14) [11(24)]	46.3
AUUGGGGCCUCCACAGCGCUCGCUUGGACUAAACCAAU (ssRNA, 2'-OMe at 1-5,15-26,32-38; 2'-F at 8-12,14,29,30; PS between 26 and 27) [11(26)]	47.2
AUUGGGGCCUCCACAGCGCUCGCUUGGACUAAACCAAU (ssRNA, 2'-OMe at 1-5,15-26,32-38; 2'-F at 8-12,14,29,30; PS between 27 and 28) [11(27)]	48.2
AUUGGGGCCUCCACAGCGCUCGCUUGGACUAAACCAAU (ssRNA, 2'-OMe at 1-5,15-26,32-38; 2'-F at 8-12,14,29,30; PS between 31 and 32) [11(31)]	56.3
AUUGGGGCCUCCACAGCGCUCGCUUGGACUAAACCAAU (ssRNA, 2'-OMe at 1-5,15-26,32-38; 2'-F at 8-12,14,29,30; PS between 12 and 13) [11(23)]	47.9
